B1: inducible lysine decarboxylase LdcI (enzyme, Escherichia coli)
chain: MNVIAILNHMGVYFKEEPIRELHRALERLNFQIVYPNDRDDLLKLIENNARLCGVIFDWDKYNLELCEEISKMNENLPLYAFANTYSTLDVSLNDLRLQISFFEYALGAAEDIANKIKQTTDEYINTILPPLTKALFKYVREGKYTFCTPGHMGGTAFQKSPVGSLFYDFFGPNTMKSDISISVSELGSLLDHSGPHKEAEQYIARVFNADRSYMVTNGTSTANKIVGMYSAPAGSTILIDRNCHKSLTHLMMMSDVTPIYFRPTRNAYGILGGIPQSEFQHATIAKRVKETPNATWPVHAVITNSTYDGLLYNTDFIKKTLDVKSIHFDSAWVPYTNFSPIYEGKCGMSGGRVEGKVIYETQSTHKLLAAFSQASMIHVKGDVNEETFNEAYMMHTTTSPHYGIVASTETAAAMMKGNAGKRLINGSIERAIKFRKEIKRLRTESDGWFFDVWQPDHIDTTECWPLRSDSTWHGFKNIDNEHMYLDPIKVTLLTPGMEKDGTMSDFGIPASIVAKYLDEHGIVVEKTGPYNLLFLFSIGIDKTKALSLLRALTDFKRAFDLNLRVKNMLPSLYREDPEFYENMRIQELAQNIHKLIVHHNLPDLMYRAFEVLPTMVMTPYAAFQKELHGMTEEVYLDEMVGRINANMILPYPPGVPLVMPGEMITEESRPVLEFLQMLCEIGAHYPGFETDIHGAYRQADGRYTVKVLKEESKK
notes: Inducible lysine decarboxylase LdcI of Escherichia coli; decamer of two pentameric rings; crystal structure pdb 3N75; also called acid stress-inducible lysine decarboxylase; source: E. coli CF1693 bearing pT7-322-Tetr, from pET22b, purified (Ni-NTA, MonoQ, Superdex S200); not shown: 24 amino acid linker containing 6xHis-tag, C-terminal, kept; copies: 10
B2: AAA+ ATPase RavA (enzyme)
chain: not shown
notes: RavA of Escherichia coli, MoxR family AAA+ ATPase; crystal structure pdb 3NBX; The purification is told for the RavA mutants ('as previously described', El Bakkouri et al., 2010); also called MoxR AAA+ ATPase RavA; source: E. coli BL21-(DE3) Gold pLysS, from p11 plasmid, purified (Ni-NTA, TEV, MonoS, Superdex S200); not shown: 6xHis-tag, N-terminal, cleaved

Columns and labels:
[1] = target: the molecule itself; assay: cryo-EM structure; LdcI-LARA complex, 7.5 Å; 7.3 µM LdcI with 73 µM LARA (1:10), 15 min at room temperature, 50 mM Mes pH 6.5, 100 mM NaCl, 0.2 mM PLP, 1 mM DTT, 0.01% glutaraldehyde; D5 symmetry imposed
[2] = target: B1; assay: cryo-EM structure; LdcI–RavA complex, 11 Å; 1.26 mg/ml LdcI mixed with 0.94 mg/ml RavA, 15 min at room temperature, 25 mM Mes pH 6.5, 200 mM NaCl, 3 mM ADP, 0.8 mM PLP, 1 mM DTT; no cross-linking; D5 symmetry imposed; conditions: both partners purified
[3] = target: the molecule itself; assay: as above

| Binder | stoichiometry N [1] | stoichiometry N [2] | stoichiometry N [3] |
| --- | --- | --- | --- |
| B1 | 10 | – | – |
| B2 | – | 1.5 RavA monomers per LdcI monomer | 6 |

— PMC4145799, “Assembly principles of a unique cage formed by hexameric and decameric E. coli proteins” (eLife, 2014)
